Data reported in the DeepSol protein solubility set.

Test: soluble on expression in E. coli; label from the status in PepcDB or PDB records

Sequence | soluble on expression in E. coli
GSDIGQVIHPDDFDKAAADDYVLHEDGEKIYFLIKSKTDEYCFTNLALVHLDGESAVSSKRVLYRYPYAHYPIRHVMFETAGTVDLDVEIKFEIGGKHYSIDVDKKQLEHVKDLYKALLAIAEKQYEGQKMLEFANSSLNHSVTILGGLRQGDMNVPQTFKDLSQESFDWLQGHYYKWNQKDFGSFYEKYINN | soluble
MSVFHDEVEIEDFEFDEEKDVYHYPCPCGDRFEIPREMLEMGEDVAQCPSCSLLIRVIYDPEDFVKLETISTSKPIAEPV | not soluble
MIQLIATPSNALVDEPVSIRATGLPPSQIVTIKATVKDENDNVFQSQAFYKTNEAGEVDLEKTPALGGDYVGVHPMGLFFSLKPKKAFHRLMKKDVMNSPLCICLDLYDSVNWLETVRIPSKASQRVQRWFVGPGVKREQIQEGRVRGALFLPPVEFRASLLASHGFAVLALAYFAYEDLPEKPQEVDLEYFEEAANFLLSHPKIQQPGIGVISTSKGAEIGLAMACYLKQVIATVCINGPTTITIFPLRYQDLVMTPIHPALERIQVHDSGALLFRYTTQYLHNKLNSQNILPVEKAQGKILFIVGENDECLDSKLHAQKAMDRLQRHGRSSGRMLAYPGAGHLIEPPYSPVCFVAWFPVLGQPMCFGGDLMAHAAAQEHSWREIQKFFRKHLLQSGSKL | not soluble
MGSDKIHHHHHHMNISTIVSNLKDLILEVRAPYDLEITGVSNHSSKVKKGDLFICRRGEKFDSHEIIPEVMEKGAVAVVVEREIDLDFPYIQVFDSRYFEAKVASLFFEDPWKDVLTFGVTGTNGKTTTTMMIYHMLTSLGERGSVLTTAVKRILGNSYYDDITTPDAITILSAMKENREGGGKFFALEVSSHALVQQRVEGVRFDVGIFTNISRDHLDFHGTFENYLKAKLHLFDLLKDDGVAVLNESLADAFNRKSRKITFGTSKNADYRLGNIEVSWEGTQFVLETPDGLLKVFTRAIGDFNAYNAAAAIAALHQLGYDPKDLASSLETFTGVEGRFEVVRGAKKIGLNVVVDFAHSPDALEKLLKNVRKISQGRVIVVFGAGGNSDRGKRPMMSEVASKLADVVILTTDDPRGEDPEQIMEDLIKGIDKRKPYLVLFDRREAIETALTIANRGDSVVIAGRGHERYQIIDEEKKVPFQDREVVEEIIRDKLKGRKYAQ | not soluble
MAKKKDEITIRSSAAEYLTYVASVGDQQDSIEMRYEDENIWLTQKMMATLYDVDVRTINEHIKKIYSDSELEEDSTIRNFRIVQTEGSRQVTRDTKHYNLQMIIAVGFKVNSERAVQFRKWVNQIAKDYTIKGWVMDDERLKRGTYLTEKYFDEQLERIREIRASERKFYQKITDLYATAIDYDKNAAMTRRFYSTVQNKMHYAVHGHTAAELIVERADHTKEHMGLTTWEDAPEGKIKKSDVTVAKNYLSQDEMKQLNRMVTAYLDFAENMTLRHIPLTMQDWEKRLNSFIEMFDYGILQDAGKVSAEIAKLHAETEFEKYRVIQDRLFMSDFDKFMLELEENTKK | not soluble
MGSDKIHHHHHHMSEDQKRILEQQLWNIANTLRGKMNADEFRDYILGFIFYKYLSEKMEIFANDILKQDKISFREITPKLKQGKEYLEAIREEALEKLGYFLKPEELFSEVAKRGRGSNDEGENFDEAKTNFILEDLQKILINIQLSTMGTDSEEDFDNLFEDMDLNSTKLGKTPDARNAIIAKVLTHLDKIDFKLEDLESDVLGDSYEYLIGQFASGAGKKAGEFYTPQQVSKILAKIVTTEKHKLKSVYDPTCGSGSLLLRVAREVKDVAKFYGQEMNRTTYNLARMNMILHGVHYRKFDIKQEDTLEHPQHMGQQFEAIVANPPFSAQWSANPLHLSDDRFSQYGKLAPASKADYAFVQHMVHHLAENGIMALVLPHGVLFRGGAEQHIRKYLIEQKNYLDAVIGLPGNIFYGTSIPTCILVIKKCREMPDNILFIDASKEFEKVKTQNILREKHIDKIVDTYRSRKEIEKYSHCASLKEIAENDFNLNIPRYVDTFEEEEEIDIQAVMAEIKNLEAKRTDLDKQIDVYMKELGLVF | not soluble
MGSDKIHHHHHHMSVMFDPDTAIYPFPPKPTPLSIDEKAYYREKIKRLLKERNAVMVAHYYTDPEIQQLAEETGGCISDSLEMARFGAKHPASTLLVAGVRFMGETAKILSPEKTILMPTLQAECSLDLGCPVEEFNAFCDAHPDRTVVVYANTSAAVKARADWVVTSSIAVELIDHLDSLGEKIIWAPDKHLGRYVQKQTGGDILCWQGACIVHDEFKTQALTRLQEEYPDAAILVHPESPQAIVDMADAVGSTSQLIAAAKTLPHQRLIVATDRGIFYKMQQAVPDKELLEAPTAGEGATCRSCAHCPWMAMNGLQAIAEALEQEGSNHEVHVDERLRERALVPLNRMLDFAATLRG | not soluble
MFENESLSFEEQTIIQAAERYVQQELANEASGHDWWHIYRVTQLAKTIAEKEQANLFLCILTALLHDIGDEKFNESEEAGLLKVQQWLEANNVSTEQTNHILSIIANMSFKGGNTGKTVTTLEGKVVQDADRLDAIGAIGIARVMAYSGNKGRLIHDPHKQPREQLTQEEYRNGEDTAIMHFYEKLLKLKEQMNTNYGRLLAEKRHQFMELYLEEFYQEWDGHR | not soluble
MFIRGREMISAVIEALIGSISLSTGLHTKKIDANIRYLQQYEWFRIIYEDEKYRKLFITNYKVRSYLQSKLRVRLLVKNKNAQRRFLKLVEEQIEKRHTN | not soluble
MISAFDIFKIGIGPSSSHTVGPMNAGKCFIDRLIDSGDLPRTTRITVDLYGSLSLTGKGHATDTAVIMGLAGNTPQDVNIDSIPAFIQEVARSSRLSVAGGAHVVDFPVADSIFFHAETLARHENGMRITAWNGQAPLLHKTYYSIGGGFIVEEERFGQSHDVEKSVPYDFHSASELLTLCERQGLSVSGLMMQNELALRSKEQIDAGFARIWQVMATGIERGMNTEGVLPGPLNVPRRAVALRRLLVSSDNLSRDPMNVIDWINMFALAVSEENAAGGRVVTAPTNGACGIIPAVLAYYDKFRRPVNANSIARYLLSAGAIGMLYKMNASISGAEVGCQGEVGVACSMAAAGLTELLGGSPAQVCIAAEIAMEHNLGLTCDPVAGQVQIPCIERNAINAVKAVNAARMALRRTSEPRVSLDKVIETMYETGKDMNDKYRETSRGGLAIKVVCG | not soluble
MEDEIRKAAEILAKSKHAVVFTGAGISAESGIPTFRGEDGLWRKYDPEEVASISGFKRNPRAFWEFSMEMKDKLFAEPNPAHYAIAELERMGIVKAVITQNIDMLHQRAGSRRVLELHGSMDKLDCLDCHETYDWSEFVEDFNKGEIPRCRKCGSYYVKPRVVLFGEPLPQRTLFEAIEEAKHCDAFMVVGSSLVVYPAAELPYIAKKAGAKMIIVNAEPTMADPIFDVKIIGKAGEVLPKIVEEVKRLRSEK | soluble
MSEPLDLNQLAQKIKQWGLELGFQQVGITDTDLSESEPKLQAWLDKQYHGEMDWMARHGMLRARPHELLPGTLRVISVRMNYLPANAAFASTLKNPKLGYVSRYALGRDYHKLLRNRLKKLGEMIQQHCVSLNFRPFVDSAPILERPLAEKAGLGWTGKHSLILNREAGSFFFLGELLVDIPLPVDQPVEEGCGKCVACMTICPTGAIVEPYTVDARRCISYLTIELEGAIPEELRPLMGNRIYGCDDCQLICPWNRYSQLTTEEDFSPRKPLHAPELIELFAWSEEKFLKVTEGSAIRRIGHLRWLRNIAVALGNAPWDETILTALESRKGEHPLLDEHIAWAIAQQIERRNACIVEVQLPKKQRLVRVIEKGLPRDA | soluble
MAHHHHHHMLSGAEELISDLFRRTSTTSNAVEFILSSNSAAYHDVMQRICNSNQPQLVKGILRTAQSLLPTELFQVFGKSVVPVLLLFAPAVLRRVGELLAAPKETPLSTCGEWDAFTSFITGIHCKLLASPECRATNVRSLPPPPVAARHTPSWSKVFHGEENVSEGVPPPQPSTDCEVNVTAIGTDNYGSLLCTIVCGLSHLLACVATPPCVIGGPGLTTLCNEVMRLLSSTPVFCYASKDANLQIACVSLLLSVLNLGKAVQGCVASSFMPTMRRWFDLTLYSANAVCIQLLFPYILHARAHR | not soluble
MGSLVREWVGFQQFPAATQEKLIEFFGKLKQKYLIVKMIQGAIRNDIKTSGKPL | not soluble
LAQPAMAMVGSRNATPQGLANADAFAEAASNAGFCIISGLAQGIDTAAHQGGLRGASSSMAIVGTGLDLVYPSRNHELAHKLANEGGLISEFPLGTPAISRNFPRRNRIISGMCHACLVVEATLYSGSLITARLALEQGREVMAIPGSIHSPLSKGCHALIKQGAKLVENIQDILDE | not soluble
SPNATPRRPLQELRRAELVEIIVETEAQTGVSGINVAGGGKEGIFVRELREDSPAARSLSLQEGDQLLSARVFFENFKYEDALRLLQCAEPYKVSFCLKRTVPTGDLALRPGTVSGYEIKGPRAKVAKLNIQSLSPVKKKKMVPGALGVPADLAPVDVEFSFPKFSRLRRGLKAEAVKGPVPAAPARRRLQLPRLRVREVAEEAQAARLAAAAPPPRKAKVEAEVAAGARFTAPQVELVGPRLPGAEVGVPQVSAPKAAPSAEAAGGFALHLPTLGLGAPAPPAVEAPAVGIQVPQVELPALPSLPTLPTLPCLETREGAVSVVVPTLDVAAPTVGVDLALPGAEVEARGEAPEVALKMPRLSFPRFGARAKEVAEAKVAKVSPEARVKGPRLRMPTFGLSLLEPRPAAPEVVESKLKLPTIKMPSLGIGVSGPEVKVPKGPEVKLPKAPEVKLPKVPEAALPEVRLPEVELPKVSEMKLPKVPEMAVPEVRLPEVELPKVSEMKLPKVPEMAVPEVRLPEVQLLKVSEMKLPKVPEMAVPEVRLPEVQLPKVSEMKLPEVSEVAVPEVRLPEVQLPKVPEMKVPEMKLPKVPEMKLPEMKLPEVQLPKVPEMAVPDVHLPEVQLPKVPEMKLPEMKLPEVKLPKVPEMAVPDVHLPEVQLPKVPEMKLPKMPEMAVPEVRLPEVQLPKVSEMKLPKVPEMAVPDVHLPEVQLPKVCEMKVPDMKLPEIKLPKVPEMAVPDVHLPEVQLPKVSEIRLPEMQVPKVPDVHLPKAPEVKLPRAPEVQLKATKAEQAEGMEFGFKMPKMTMPKLGRAESPSRGKPGEAGAEVSGKLVTLPCLQPEVDGEAHVGVPSLTLPSVELDLPGALGLQGQVPAAKMGKGERAEGPEVAAGVREVGFRVPSVEIVTPQLPAVEIEEGRLEMIETKVKPSSKFSLPKFGLSGPKVAKAEAEGAGRATKLKVSKFAISLPKARVGAEAEAKGAGEAGLLPALDLSIPQLSLDAHLPSGKVEVAGADLKFKGPRFALPKFGVRGRDTEAAELVPGVAELEGKGWGWDGRVKMPKLKVSTAGQVVTEGHDAGLRMPPLGISLPQVELTGFGEAGTPGQQAQSTVPSAEGTAGYRVQVPQVTLSLPGAQVAGGELLVGEGVFKMPTVTVPQLELDVGLSREAQAGEAATGEGGLRLKLPTLGARARVGGEGAEEQPPGAERTFCLSLPDVELSPSGGNHAEYQVAEGEGEAGHKLKVRLPRFGLVRAKEGAEEGEKAKSPKLRLPRVGFSQSEMVTGEGSPSPEEEEEEEEEGSGEGASGRRGRVRVRLPRVGLAAPSKASRGQEGDAAPKSPVREKSPKFRFPRVSLSPKARSGSGDQEEGGLRVRLPSVGFSETGAPGPARMEGAQAAAV | soluble
YDNLAHNLAVERGLTAGVLGSQGKTEIVQKLTQQRKKVDDAVNSLVQLNTPLISSSDSYDLLQDVQVQLNRLNQVRQGVDRLSPQIAPFGYYSNLNQLIIDNIDILIAQTQSRELGTLGDALISVIVMKERAGQARGALNGVFAKGSATSVLFSNIEGYIQSGDYASRKAQIAFPEQYRQSLQSHQSNPAWKKVEQVQQSFLNQSANLDNIQGPQATEWFPMATERIGLMNQLRNQMVDQMLSAA | not soluble
